Experimental data reported in the DeepSol protein solubility set.

Experiment: soluble on expression in E. coli; label from the status in PepcDB or PDB records

Sequence	soluble on expression in E. coli
MKKLVLIGGGYGNMRVLHRLLPNQLPDDVSITLIDRNPYHCLKTEYYALAAGTISDHHIRVSFPEHPRLDVQYGDITSIDIVQKQVLFQDREPISYDDAIIGLGCEDKYHNVPGAPEFTYSIQTIDQSRETYQKLNNLSANATVAIVGAGLSGVELASELRESRDDLNIILFDRGNLILSSFPERLSKYVQKWFEEHGVRIINRANITKVEEGVVYNHDDPISADAIVWTAGIQPNKVVRDLDVEKDAQGRIVLTPHHNLPGDEHLYVVGDCASLPHAPSAQLAEAQAEQIVQILQKRWNGEALPESMPQFKLKGVLGSTRK	soluble
MKKMLLATALALLITGCAQQTFTVQNKQTAVAPKETITHHFFVSGIGQKKTVDAAKICGGAENVVKTETQQTFVNGLLGFITLGIYTPLEARVYCSK	soluble
MKKPIILRKRYIPDEVIDISGDELVFRSEDLLITKWNPIRKRPDISGGISFTFLKEGYKASKFFGPSGEFKYWYCDIIKVLYDEDEDKYTLVDLLLDVKIMPDGRVEVLDADELAEALKNNIISKEEACMCLSILDKILKMAYSGKFPPEICLKDY	soluble
MKKPVHDMRQHIIDVARSLMTNKGYTAVGLAEVLITAGVPKGSFYYYFKSKEEFGQALLEEYFSEYLGRVDALMARPGTGAERLLAYFMYWSETQGTDLPEGKCLVVKLGAEVCDLSEDMRCVLEVGTAKIIQRISACVEMGVSDGSIHPEGDHQGFAESLYQLWLGASLLVKVNKSTESFDKALNMTKRLLK	not soluble
MKKRYKNPEKSGSCGNFIQAIKMTDKVQPLESLSKKPEEPKIVVNLRRIKRKIMVMSGKGGVGKSTVAANLAVGLALRGHRVGLLDCDIHGPTVPTIFGLESARPGVSEEGILPIEVLPNLSVMSIGFLLENKDSPIIWRGPAKMGAIKQFLEEVFWGALDFLIIDLPPGTGDEPLSVAQLIPNCDGSVLVTTPQDVALISVRKSITFSEKLNVPIIGLVDNMHGLICPHCGKPIEVFGSGGVEKASKDFNIPILARLPIEPGVAEMEDRGTVVQDQLKHGTEWQKNFDNVVDAVEKILEKELEHHHHHH	soluble
MKKSLIAFILIFMLVLSGCGMKDNDKQGSNDNGSSKSPYHRIVSLMPSNTEILYELGLGKYIVGVSTVDDYPKDVKKGKKQFDALNLNKEELLKAKPDLILAHESQKATANKVLSSLEKQGIKVVYVKDAQSIDETYNTFKQIGKLTHHDKQAEQLVEETKDNIDKVIDSIPAHHKKSKVFIEVSSKPEIYTAGKHTFFNDMLEKLEAQNVYSDINGWNPVTKESIIKKNPDILISTEAKTRSDYMDIIKKRGGFNKINAVKNTRIEVVNGDEVSRPGPRIDEGLKELRDAIYRK	not soluble
MKKTGWGILGAVAAFTGYAYWSTKHLTVTDYEILSDKIPAEWDGATFVQLSDLHSASFGLYNNPLLSIVNELAPDAVFLTGDMIDGDESPFVTMAVVRKLAKEFPVFYVSGNHEGRSAFYEDFKADMEKHHVAVLENERYFLRKDGAAIMVAGVKDPRFVRDDWAEKELPKQVWEEEALKEALDEATANLSPDYFTILLAHRPEFWPLYQAYPVDLVLSGHAHGGQFRLPLTEGLFAPGQGFMPKWTAGLHSAGGKSLIVSRGLGNVTKLPRLFNDPEIIRITLKAKGDARENLEHHHHHH	not soluble
MKKTTLAMSALALSLGLALSPLSATAAETSSSAMTAQQMPSLAPMLEKVMPSVVSINVEGSTTVNTPRMPRNFQQFFGDDSPFCQDGSPFQNSPFCQGGGNGGNGGQQQKFMALGSGVIIDAAKGYVVTNNHVVDNASVIKVQLSDGRKFDAKVVGKDPRSDIALIQIQNPKNLTAIKLADSDALRVGDYTVAIGNPFGLGETVTSGIVSALGRSGLNVENYENFIQTDAAINRGNSGGALVNLNGELIGINTAILAPDGGNIGIGFAIPSNMVKNLTSQMVEYGQVKRGELGIMGTELNSELAKAMKVDAQRGAFVSQVMPNSSAAKAGIKAGDVITSLNGKPISSFAALRAQVGTMPVGSKISLGLLREGKAITVNLELQQSSQSQVDSSTIFSGIEGAEMSNKGQDKGVVVSSVKANSPAAQIGLKKGDVIIGANQQPVKNIAELRKILDSKPSVLALNIQRGDSSIYLLMQ	not soluble
MKKVGILNSEISKIVADMGHMDTLAVVDLGFPIPQGVKKVDLVVDRGKPGLMEVIEILLRELKVERIILAKEMDEKSIQTKQELLKLIEKMNGPVEVVTVPHKEFKEMSKNVKGIIRTGADIPYSNVILVGGVIF	soluble
MKKVLFLLFLVFSFGVYSATFSDSDKKEILKQFSEFQKAVKKKDAAAVSRYISYPLKEGNTKEVIWKNSSELAKDLKDKETYTFYSINELKIDSNANKIINVEERLLEKNGEFGDEFLSVTGRFLDTDDVEGTIYTGIDKPHFVVAVSVYDDMFEGGTYYLFSFENKKLELVSIFRLP	not soluble
MKKVLLVNGPNLNRLGVREVNVYGKGTLATLEADMKQEAEAMGVELECFQSNHEGAIIDRIHEAEDIYEGIILNPGAFTHYSYAIRDAIASISIPVIEVHISNIHQRESFRHESVTAAVCAGQIVGFGFYGYKLALFALMEKLREA	not soluble
MKKYQQLAEQLREQIASGIWQPGDRLPSLRDQVALSGMSFMTVSHAYQLLESQGYIIARPQSGYYVAPQAIKMPKAPVIPVTRDEAVDINTYIFDMLQASRDPSVVPFASAFPDPRLFPLQQLNRSLAQVSKTATAMSVIENLPPGNAELRQAIARRYALQGITISPDEIVITAGALEALNLSLQAVTEPGDWVIVENPCFYGALQALERLRLKALSVATDVKEGIDLQALELALQEYPVKACWLMTNSQNPLGFTLTPQKKAQLVALLNQYNVTLIEDDVYSELYFGREKPLPAKAWDRHDGVLHCSSFSKCLVPGFRIGWVAAGKHARKIQRLQLMSTLSTSSPMQLALVDYLSTRRYDAHLRRLRRQLAERKQRAWQALLRYLPAEVKIHHNDSGYFLWLELPEPLDAGELSLAALTHHISIAPGKMFSTGENWSRFFRFNTAWQWGEREEQAVKQLGKLIQERL	not soluble
MKKYQQLFKQIQETIQNETYAVGDFLPSEHDLMEQYQVSRDTVRKALSLLQEEGLIKKIRGQGSQVVKEETVNFPVSNLTSYQELVKELGLRSKTNVVSLDKIIIDKKSSLITGFPEFRMVWKVVRQRVVDDLVSVLDTDYLDMELIPNLTRQIAEQSIYSYIENGLKLLIDYAQKEITIDHSSDRDKILMDIGKDPYVVSIKSKVYLQDGRQFQFTESRHKLEKFRFVDFAKRKK	not soluble
MKLARFLAKGRVHQGVYREGLLLDEAGEAHRPEDVTWLLPFTPGKILGVALNYADHAEELGLSRPEEPALFWKPNTSLLPHKGVVLYPKGARFVHYEVELAVVVGRPMKRVRAKDALDYVLGYTIANDLVARDYVTNTFRPPIRAKGRDTFLPLGPFLVVEEVEDPQDLWLRAYVNGELRQEGHTSRMLYSVAELLEFISEFMTLEPYDVLLTGTPKGISQVRPGDVMRLEIEGLGALENPIEEEP	soluble
MKLDAKSTIETGKAILGIELGSTRIKAVLIDQENKPIAQGSHTWENQLVNGLWTYSIDAIWSGLQDCYADLRSNVKKLYDTEIETLAAIGVSAMMHGYMPFNEKEEILVPFRTWRNTNTGRAAAELSELFVYNIPLRWSISHLYQAILDNEAHVKDIKFLTTLAGYVHWQITGEKVLGIGDASGMLPIDPTTNNYSAEMVAKFNNLIASKEYSWKLEDILPKVLSAGENAGVLTPEGCKKLDASGHLKAGIPVCPPEGDAGTGMVATNAVKQRTGNVSAGTSSFSMIVLEKELSKPYEMIDMVTTPDGSLVAMVHCNNCTSDLNAWVNLFKEYQELLGIPVDMDELYGKLYNIALTGDTDCGGLLSYNYISGEPVTGLAEGRPLFVRSANDKFNLANFMRAHLYASVGVLKIGNDILFNEEKIKVDRITGHGGLFRTKGVGQRVLAAAINSPISVMETAGEGGAWGIALLGSYLVNNKKGQSLADFLDESVFVSDAGVEVSPTPEDVAGFNTYIESYKAGLPIEEAAVKFKLEHHHHHH	soluble
MKLESPLGSDLARLVRIWRALIDHRLKPLELTQTHWVTLHNIHQLPPDQSQIQLAKAIGIEQPSLVRTLDQLEEKGLISRQTCASDRRAKRIKLTEKAEPLISEMEAVINKTRAEILHGISAEELEQLITLIAKLEHNIIELQAKG	not soluble
MKLFQVLIISMICLALVEERRDRSNRRRNQSEGGSRSRSESWLGSSGSSRSRSSGRSAASAGSSQAASPAGASAIGSSQAGSSAGSPAAAAAGGSGGADAGAILNGVGGLMRSVGGLAGAAGGAAGGAAGAPAGAPAGASAGASAAPAAQDAGTVLGGVSGVLTGVSGIVSAAGAAKA	not soluble
MKLHLEIWRQAGPNSEGHFEPIDVNDAVPQMSVLELLDHVNTGLIEEGKEPFVFASDCREGICGTCGLLVNGRPHGLDKNKPSCQQRLDHVPDGSTLKIEPLRSAAYPVVKDLLVDRSALDRVLEKGGFVSINAGTAPDADTLHQNHESAELALDH	not soluble
MKLIFILSIIFLSSLSVAQSPISCAFCMAGLAQINQQVISSPDMEAQMGIQASQGCDQIPVKQTRETCRGSLNTNFNIFYSNFTGQANNSPTQMCINMGMC	not soluble
MKLKAILIVALSVVLFLVGYREMKPISDEQKMESMIKALEKNDAKVEKWSWLARETKTISNIHTFQKLLNDVKEKANIQKWEVEQSPDGYKATSYKKLSSYEERVVVTWSKENTKENTFIIFEVSGAKWDPKYVQNMNKIFSEKPIIYTCVQGVLNDKIEGVLQNKTNQVLKDLSARAIEQVEERAFVSVSAYNKKWDDALSTNREKINVQIAIRSTDNKDTIVVGTPIITSEY	not soluble
MKLKHLDKLLAHCHRRRYTAKSTIIYAGDRCETLFFIIKGSVTILIEDDDGREMIIGYLNSGDFFGELGLFEKEGSEQERSAWVRAKVECEVAEISYAKFRELSQQDSEILYTLGSQMADRLRKTTRKVGDLAFLDVTGRVARTLLDLCQQPDAMTHPDGMQIKITRQEIGRIVGCSREMVGRVLKSLEEQGLVHVKGKTMVVFGTR	soluble
MKLNCCGVTQIADRVERLAHTHGKTWHTWHTDQDKTLPLGVPQLMMGFTADGQADPAMQQQRNQRLGIVKSAIKAQRADIQIPKADPGADGWQHGKTIQINDPTGHLHGPATSPTPQNTNSRSTQLEHHHHHH	not soluble
MKLNLKNPLIFFDLETTGVDLVRDRIVEISILKVMPDGSEECKTRRINPERPIPPESTAIHGIRDEDVKDCPPFRSVAKSLAQWIEGCDLAGFNSTRFDVPMLVEEFLRAGVDIDLRHRKLIDVQTIFHKMEPRTLEAATRFYCNRTLENAHSAEADTRATYDVFKAQLDRYEGTLENDMAFLADFSRQSRNVDFAGRLVYDDNDNVIINFGKYRGRKALDVLRTDSGYYGWIMDADFTLNTKQEFTRLRMSLNNPETK	soluble
MKLPARVFFTLGSRLPCGLAPRRFFSYGTKILYQNTEALQSKFFSPLQKAMLPPNSFQGKVAFITGGGTGLGKGMTTLLSSLGAQCVIASRKMDVLKATAEQISSQTGNKVHAIQCDVRDPDMVQNTVSELIKVAGHPNIVINNAAGNFISPTERLSPNAWKTITDIVLNGTAFVTLEIGKQLIKAQKGAAFLSITTIYAETGSGFVVPSASAKAGVEAMSKSLAAEWGKYGMRFNVIQPGPIKTKGAFSRLDPTGTFEKEMIGRIPCGRLGTVEELANLAAFLCSDYASWINGAVIKFDGGEEVLISGEFNDLRKVTKEQWDTIEELIRKTKGS	soluble
MKLSGGVEWALHCCVVLSQAESPVPTARLAELHGVSKTYLAKHLQSLARAGLVHPTEGRDGGYVLTRAPEAITVLDVVQAVDGTEPAFRCTEIRRQGVLAAPPEQCRSACGIAKVMAGAEQAWRASLSSVTIADLGATIDLTVLKHILATSTT	not soluble
